Results on four molecules are retold here after US8034913B2, “Recombinantly modified plasmin” (Grifols Therapeutics Inc., priority 2004, dated 2011).

Usually Km stands for the substrate concentration at which the rate is half of its maximum. As a reminder, the kcat is the number of substrate molecules converted per active site and unit of time at saturation.

Where “and” joins values, the source holds several entries; their conditions need not be identical. Identical values can stand only once. Like-named read-outs stand apart in the source and are kept apart here.

The target of data set [1] is T1, urokinase (Homo sapiens, UniProt P00749). Nature of the data set: Kinetics of urokinase activation of plasminogen species (S-2251 coupled assay, method of Wohl et al.). The conditions noted are these: 5.8 nM urokinase, 1 mM S-2251, 37° C., pH 7.5. The class given is biochemical. How it is done: Increases in absorbance were monitored at 405 nm.
Activation of delta-plasminogen to delta-plasmin was complete within 3 minutes under these conditions. Very similar results were obtained with tPA and streptokinase.
Data were fit to a Michaelis-Menten kinetic model using Lineweaver-Burk analysis, resulting in the values below: […]

The target of data set [2] is T1, urokinase. The conditions noted are these: urokinase activation; Wohl et al. 1980; read-out: Km, literature value; cited from earlier work.
Data set [3] in a line: Amidolytic activity, steady-state kinetics with substrate S-2251. The conditions noted are these: S-2251, PBS buffer, pH 7.4, 25° C.; for kcat: delta-plasmin corrected for percent active sites. The format is biochemical.
The next data set addresses T2, α2-macroglobulin (Homo sapiens, UniProt P01023).
T2 sequence (P01023 24-1474): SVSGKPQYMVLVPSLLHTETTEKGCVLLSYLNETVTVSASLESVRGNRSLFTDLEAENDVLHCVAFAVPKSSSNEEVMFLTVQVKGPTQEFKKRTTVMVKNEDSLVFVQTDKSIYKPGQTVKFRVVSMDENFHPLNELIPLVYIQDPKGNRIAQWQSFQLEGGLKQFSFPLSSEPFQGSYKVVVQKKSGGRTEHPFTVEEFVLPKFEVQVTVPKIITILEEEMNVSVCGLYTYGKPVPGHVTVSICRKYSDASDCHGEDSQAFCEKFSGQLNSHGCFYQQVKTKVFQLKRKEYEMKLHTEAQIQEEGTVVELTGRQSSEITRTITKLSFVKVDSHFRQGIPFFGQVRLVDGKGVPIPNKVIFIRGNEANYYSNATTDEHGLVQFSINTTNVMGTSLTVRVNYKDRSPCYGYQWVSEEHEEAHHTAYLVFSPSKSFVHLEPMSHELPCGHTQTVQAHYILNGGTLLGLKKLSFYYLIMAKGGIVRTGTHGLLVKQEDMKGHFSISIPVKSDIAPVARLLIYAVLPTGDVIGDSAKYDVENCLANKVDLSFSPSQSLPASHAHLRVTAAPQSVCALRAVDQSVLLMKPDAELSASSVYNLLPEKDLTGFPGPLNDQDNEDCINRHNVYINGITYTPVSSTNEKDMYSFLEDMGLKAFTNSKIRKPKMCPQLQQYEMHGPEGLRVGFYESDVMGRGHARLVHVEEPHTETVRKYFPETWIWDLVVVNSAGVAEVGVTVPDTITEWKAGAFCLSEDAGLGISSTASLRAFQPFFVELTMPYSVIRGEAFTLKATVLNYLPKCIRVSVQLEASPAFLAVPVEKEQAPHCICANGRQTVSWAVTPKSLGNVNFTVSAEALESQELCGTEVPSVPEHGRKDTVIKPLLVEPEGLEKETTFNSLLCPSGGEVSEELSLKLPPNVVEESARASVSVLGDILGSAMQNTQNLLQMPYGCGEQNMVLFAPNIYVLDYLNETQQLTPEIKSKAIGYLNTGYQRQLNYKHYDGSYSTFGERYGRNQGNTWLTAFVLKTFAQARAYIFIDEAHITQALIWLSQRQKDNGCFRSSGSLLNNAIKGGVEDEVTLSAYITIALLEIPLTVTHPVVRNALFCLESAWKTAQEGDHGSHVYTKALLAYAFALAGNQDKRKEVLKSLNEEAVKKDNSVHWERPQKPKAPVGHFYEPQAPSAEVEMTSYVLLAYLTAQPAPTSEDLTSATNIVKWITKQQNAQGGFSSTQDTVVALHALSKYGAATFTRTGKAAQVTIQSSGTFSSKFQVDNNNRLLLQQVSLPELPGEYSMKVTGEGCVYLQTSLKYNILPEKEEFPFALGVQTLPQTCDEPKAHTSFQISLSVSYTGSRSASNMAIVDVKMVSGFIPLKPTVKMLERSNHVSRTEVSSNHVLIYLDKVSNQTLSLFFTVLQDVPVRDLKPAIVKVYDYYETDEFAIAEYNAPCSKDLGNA
As to the kind of experiment: Rate of inhibition by α2-macroglobulin (method of Anonick et al.). The class given is biochemical. The conditions noted are these: 22° C. in PBS buffer, pH 7.4. How it is done:
The rate of inhibition of delta-plasmin by α2-macroglobulin was measured using the method of Anonick et al. (Anonick, P., et al., Thrombosis Res. 59:449-462 (1990)).
(§1) Literature values are taken from Anonick, et al., Thrombosis Res. 59:449 (1990). All rates were measured according to the methods published in Anonick, et al.

Data set [4] has as its system retracted whole human blood clots. Nature of the data set: In vitro model of catheter-assisted thrombolysis, lysis of retracted whole-blood clots. The conditions noted are these: single 1-ml dose injected into clot, 60 min at 37° C.; delta-plasmin 0.44 mg, plasmin 1.0 mg (equimolar). Here is the method: FIG. 11 is a graphic representation of delta-plasmin-induced lysis of retracted whole-blood clots. Each clot (0.8×7 cm) was injected with a 1 ml volume of vehicle (acidified saline, pH 3.6), plasmin (1.0 mg/ml), or delta-plasmin (0.44 mg/ml), and clot dissolution was allowed to proceed at 37° C. for 1 hour.
The thrombolytic efficacy of delta-plasmin was tested in an in vitro model of catheter-assisted thrombolysis (Novokhatny, V. et al., J Thromb Haemost., 1(5):1034-41 (2003), incorporated by reference) using the following experimental protocol.
Fresh whole human blood was collected into 20×0.95 cm glass tubes and allowed to clot spontaneously without additives. Tubes were incubated for 20 hr at 37° C. to allow full retraction. Retracted clots were separated from serum using USA Standard testing sieves D16 with 14 mesh, and their weights were determined. […]
Single 1-ml doses of acidified saline, plasmin, or delta-plasmin were injected into the clot using a syringe. […] After the incubation, the clots were placed again on the sieve to remove the liquefied material and the weight of the digested clots was measured. The extent of clot lysis was determined from the difference between the initial clot weight and the weight of residual clot and was expressed as a percent of clot weight reduction.

The target in data set [5] is T3, α2-antiplasmin (Homo sapiens, UniProt P08697).
T3 sequence (P08697 40-491): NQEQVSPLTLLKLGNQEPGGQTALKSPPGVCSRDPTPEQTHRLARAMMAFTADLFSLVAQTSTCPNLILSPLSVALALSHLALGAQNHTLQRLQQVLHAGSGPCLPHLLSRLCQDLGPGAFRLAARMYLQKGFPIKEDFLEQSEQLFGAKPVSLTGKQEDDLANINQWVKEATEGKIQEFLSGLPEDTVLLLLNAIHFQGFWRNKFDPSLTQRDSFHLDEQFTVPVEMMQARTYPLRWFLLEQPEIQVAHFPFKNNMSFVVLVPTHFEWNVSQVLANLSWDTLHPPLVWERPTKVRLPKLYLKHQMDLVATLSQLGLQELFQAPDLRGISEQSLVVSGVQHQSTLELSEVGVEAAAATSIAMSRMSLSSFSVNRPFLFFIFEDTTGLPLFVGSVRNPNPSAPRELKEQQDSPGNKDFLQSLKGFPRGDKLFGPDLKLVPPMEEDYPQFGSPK
The conditions noted are these: literature value, Anonick et al. 1990; cited from earlier work.

Data set [6] has as its target T3, α2-antiplasmin. Nature of the data set: Rate of inhibition by α2-antiplasmin (method of Wiman and Collen, S-2251 activity at time points). The class given is biochemical. The conditions noted are these: 22° C. in PBS buffer, pH 7.4. Here is the method:
as §1

Turning to “Plasminogen: human plasminogen, single-chain protein containing 791 amino acid residues”, in the data set with urokinase [1], the Km was 1.2 µM and the kcat turned out to be 0.0383 ± 0.005 s⁻¹. The Km with urokinase [2] was 1.7 µM.

B1: plasmin: two-chain, disulfide-linked serine protease from activation of plasminogen (antibody)
heavy: EPLDDYVNTQGASLFSVTKKQLGAGSIEECAAKCEEDEEFTCRAFQYHSKEQQCVIMAENRKSSIIIRMRDVVLFEKKVYLSECKTGNGKNYRGTMSKTKNGITCQKWSSTSPHRPRFSPATHPSEGLEENYCRNPDNDPQGPWCYTTDPEKRYDYCDILECEEECMHCSGENYDGKISKTMSGLECQAWDSQSPHAHGYIPSKFPNKNLKKNYCRNPDRELRPWCFTTDPNKRWELCDIPRCTTPPPSSGPTYQCLKGTGENYRGNVAVTVSGHTCQHWSAQTPHTHNRTPENFPCKNLDENYCRNPDGKRAPWCHTTNSQVRWEYCKIPSCDSSPVSTEQLAPTAPPELTPVVQDCYHGDGQSYRGTSSTTTTGKKCQSWSSMTPHRHQKTPENYPNAGLTMNYCRNPDADKGPWCFTTDPSVRWEYCNLKKCSGTEASVVAPPPVVLLPDVETPSEEDCMFGNGKGYRGKRATTVTGTPCQDWAAQEPHRHSIFTPETNPRAGLEKNYCRNPDGDVGGPWCYTTNPRKLYDYCDVPQCAAPSFDCGKPQVEPKKCPGR
light: VVGGCVAHPHSWPWQVSLRTRFGMHFCGGTLISPEWVLTAAHCLEKSPRPSSYKVILGAHQEVNLEPHVQEIEVSRLFLEPTRKDIALLKLSSPAVITDKVIPACLPSPNYVVADRTECFITGWGETQGTFGAGLLKEAQLPVIENKVCNRYEFLNGRVQSTELCAGHLAGGTDSCQGDSGGPLVCFEKDKYILQGVTSWGLGCARPNKPGVYVRVSRFVTWIEGVMRNN
In the case of B1, in data set [3], the Km turned out to be 193 µM and the kcat came out at 12.7 ± 0.383 s⁻¹. The kcat in data set [3] (listed as full-length plasmin) worked out at 12.7 ± 0.383 s⁻¹. For the same molecule, in the data set with α2-macroglobulin, the “inhibition rate by α2-macroglobulin” value is reported as 6.5 +/− 0.5 × 10^5 M^−1s^−1. The molecule further returned a clot weight reduction in data set [4] of 50%. Moreover, in the data set with α2-antiplasmin [5], the “inhibition rate by α2-antiplasmin (lit.)” value was 2.5×10^7 M^−1s^−1 and 2.5 +/− 0.5 × 10^7 M^−1s^−1.

B2: mini-plasmin: activated mini-plasminogen (Val443-Asn791), fifth kringle and serine protease domain (K5-SP) (protein)
chain 1: VAPPPVVLLPDVETPSEEDCMFGNGKGYRGKRATTVTGTPCQDWAAQEPHRHSIFTPETNPRAGLEKNYCRNPDGDVGGPWCYTTNPRKLYDYCDVPQCAAPSFDCGKPQVEPKKCPGR
chain 2: VVGGCVAHPHSWPWQVSLRTRFGMHFCGGTLISPEWVLTAAHCLEKSPRPSSYKVILGAHQEVNLEPHVQEIEVSRLFLEPTRKDIALLKLSSPAVITDKVIPACLPSPNYVVADRTECFITGWGETQGTFGAGLLKEAQLPVIENKVCNRYEFLNGRVQSTELCAGHLAGGTDSCQGDSGGPLVCFEKDKYILQGVTSWGLGCARPNKPGVYVRVSRFVTWIEGVMRNN
Take B2: in data set [3], the Km was determined as 160 µM and the kcat was 12.8 ± 1.17 s⁻¹. For the same molecule, the “inhibition rate by α2-macroglobulin” value in the data set with α2-macroglobulin is reported as 7.5 +/− 0.3 × 10^5 M^−1s^−1. Also, in the data set with α2-antiplasmin [6], the “inhibition rate by α2-antiplasmin” value is 2.4×10^5 M^−1s^−1 and 2.4 +/− 0.5 × 10^5 M^−1s^−1.

B3: micro-plasmin: plasmin species lacking all five kringles (protein)
chain: APSFDCGKPQVEPKKCPGRVVGGCVAHPHSWPWQVSLRTRFGMHFCGGTLISPEWVLTAAHCLEKSPRPSSYKVILGAHQEVNLEPHVQEIEVSRLFLEPTRKDIALLKLSSPAVITDKVIPACLPSPNYVVADRTECFITGWGETQGTFGAGLLKEAQLPVIENKVCNRYEFLNGRVQSTELCAGHLAGGTDSCQGDSGGPLVCFEKDKYILQGVTSWGLGCARPNKPGVYVRVSRFVTWIEGVMRNN
As to B3, in data set [3], the Km turned out to be 145 µM and the kcat was found to be 13.2 ± 0.4 s⁻¹. For the same molecule, in the data set with α2-macroglobulin, the “inhibition rate by α2-macroglobulin” value is 7.8 +/− 0.6 × 10^5 M^−1s^−1. Moreover, the “inhibition rate by α2-antiplasmin” value with α2-antiplasmin [6] was 1.8×10^5 M^−1s^−1 and 3.1×10^5 M^−1s^−1 and 1.8 +/− 0.2 × 10^5 M^−1s^−1.
